Results on seven molecules are retold here after patent US20230057177A1 (CULLGEN SHANGHAI, published 2023).

B1: Peptide 7 (SEQ ID NO: 7) (peptide)
peptide: SRLNRRASF
B2: Peptide 3 (SEQ ID NO: 3) (peptide)
peptide: ILPKVLHKRTLGL
B3: Peptide 4 (SEQ ID NO: 4) (peptide)
peptide: ILPKVLHKRTFGL
B4: Peptide 5 (SEQ ID NO: 5) (peptide)
peptide: KVLHKRTLG
B5: Peptide 2 (SEQ ID NO: 2) (peptide)
peptide: ILPKVWHKRELGLS
B6: Peptide 6 (SEQ ID NO: 6) (peptide)
peptide: NFTSRLNRRASFP
B7: Peptide 1 (SEQ ID NO: 1) (peptide)
peptide: ILPKVLHKRTLGLS
notes: No terminal modifications are stated for the tested peptide

The target in the first experiment is T1, His-DDB1 (human DNA damage-binding protein 1 with N-terminal His6-tag) (human, UniProt Q16531 1-1140).
T1 construct: Vector-derived residues between the His6-tag and DDB1 (pFastBacHTB) are not described; also called His-DDB1 proteins
T1 sequence (Q16531 other isoform, or with tags, fused parts or gaps limits assumed): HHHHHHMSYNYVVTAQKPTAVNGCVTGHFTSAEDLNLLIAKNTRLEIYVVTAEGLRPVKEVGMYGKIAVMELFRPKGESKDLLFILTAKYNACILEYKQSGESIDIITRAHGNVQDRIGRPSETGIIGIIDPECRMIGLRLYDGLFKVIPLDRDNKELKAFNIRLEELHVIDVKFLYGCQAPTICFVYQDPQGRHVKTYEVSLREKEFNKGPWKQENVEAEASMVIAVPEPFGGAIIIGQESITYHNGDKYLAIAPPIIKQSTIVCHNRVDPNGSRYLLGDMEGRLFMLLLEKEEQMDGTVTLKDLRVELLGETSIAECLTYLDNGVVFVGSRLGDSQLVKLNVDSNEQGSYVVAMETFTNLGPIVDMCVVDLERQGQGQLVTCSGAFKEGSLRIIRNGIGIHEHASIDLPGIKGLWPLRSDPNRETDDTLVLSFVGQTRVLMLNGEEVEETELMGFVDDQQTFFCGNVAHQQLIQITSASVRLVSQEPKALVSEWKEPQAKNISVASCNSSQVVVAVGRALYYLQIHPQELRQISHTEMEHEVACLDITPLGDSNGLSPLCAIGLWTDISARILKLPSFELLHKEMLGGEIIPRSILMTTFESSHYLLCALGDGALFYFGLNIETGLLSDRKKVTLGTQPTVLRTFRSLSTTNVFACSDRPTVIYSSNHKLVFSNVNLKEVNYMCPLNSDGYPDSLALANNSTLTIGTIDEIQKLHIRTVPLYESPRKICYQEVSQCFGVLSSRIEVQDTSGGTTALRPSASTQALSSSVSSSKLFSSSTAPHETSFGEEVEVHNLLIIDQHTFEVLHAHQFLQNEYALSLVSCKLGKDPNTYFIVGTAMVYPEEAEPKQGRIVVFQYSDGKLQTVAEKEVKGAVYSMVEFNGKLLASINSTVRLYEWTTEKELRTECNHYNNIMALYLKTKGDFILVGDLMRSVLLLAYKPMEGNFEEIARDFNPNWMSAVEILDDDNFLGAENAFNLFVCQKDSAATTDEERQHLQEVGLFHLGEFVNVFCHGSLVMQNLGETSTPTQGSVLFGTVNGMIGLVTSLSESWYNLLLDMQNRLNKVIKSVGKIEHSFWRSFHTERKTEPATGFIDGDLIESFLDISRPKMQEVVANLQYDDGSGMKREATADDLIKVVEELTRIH
Kind of experiment: SPR (Biacore), His-DDB1 amine-coupled on CM5 chip, steady state affinity fit; graded cell, table key: B: Kd 20-100 uM (lower end of the range). A general note: SPR reads the build-up and loss of mass on a sensor chip optically.
As for B1, the Kd (usually the constant that tells how readily two partners part at equilibrium) fell in the range of 20 to 100 µM.

A further experiment has as its target T1, His-DDB1 (human DNA damage-binding …). Kind of experiment: SPR (Biacore), His-DDB1 amine-coupled on CM5 chip, steady state affinity fit; graded cell, table key: A: Kd < 20 uM.
Molecule B2 displayed a Kd of less than 20 µM.

In the case of B3, the Kd was less than 20 µM.

On to B4, for which the Kd is less than 20 µM.

For the molecule B5, the Kd is less than 20 µM.

For B6, the Kd is less than 20 µM.

For the molecule B7, the Kd is less than 20 µM.
